{
  "source": "paper PMC8500459",
  "about": "“Novel Homologs of Isopentenyl Phosphate Kinase Reveal Class‐Wide Substrate Flexibility” (Chemcatchem, 2021)",
  "proteins": {"B1": {"name": "MSB (Methanosarcina barkeri 3) (protein)", "chain": "MNVSTEPVILKLGGSVITDKAADQGVVREDSLRRIAKEVSEYRGKMIIVHGAGSFGHTYAKKYQLGKVFDPEGAIVTHESVKKLASRVVDTLNEYGVRAIAVHPMCCTICRNGRIESMYLDNIKLMLENGLVPVLHGDVVMDLELRACVLSGDQIVPYLAKELKITRLGLGSAEDGVLDNDGKTVPEITPKTFEDFKHYIRGSGSTDVTGGMLGKVQELLELSKTSCITSYIFNAGKDDNIYRFLNGEPMGTTISPDKRV", "notes": "N-His6 fusion, pET28a NdeI/EcoRI, codon-optimised synthetic gene, E. coli Rosetta2, Ni-NTA"}, "B2": {"name": "MHM (Methanohalophilus mahii DSM 5219) (protein)", "chain": "MNEKNSDITILKIGGSVITDKSSNEGIVREKAIIRIAREISFFEGPLIIVHGAGSFGHPQAKRYSLAYKFSAEGSGVTHRSVASLNELFVNALAQRNVNAVGIHPMGCLVAKEGRISKSFLLAIQMMLEKGITPVLHGDVVMDTVKGSSVISGDQIVPYLASKLNAYRIGVGSAEDGVLDEHGHPIPLITPDNFEIASMHIGGSENTDVTGGMLGKVKEMLDMSRQTKVPSYIFNANAGGNVMSFLRGEMIGTAIKDKA", "notes": "as for B1"}, "B3": {"name": "TCP (Thermococcus paralvinellae) (protein)", "chain": "MIIIKLGGSVISDKEKEYSFHRHIVEQIAEEIAQFYPDESFILVHGGGSFGHPNAREYKITEGLVGDVDRKRIGFSKTHQAMLKLNDLIIQTFLEKGLPAYSVSSSSIFLLENKEVVYGELEILRKLLELKFIPVLFGDTAIALDKGIDILSGDQIVSYLAKMLKPSKVIFLMDVDGIYDRNPKERDAKLIEELNVEEIRHLLESSESAGIDVTGGIGNKLREALKIAKHSEVYFINGKVKENLGKAIRGEKVGTRLRKLEHPKIS", "notes": "as for B1"}, "B4": {"name": "CNG (Candidatus Nitrososphaera gargensis Ga9.2) (protein)", "chain": "MQKLALIKLGGSVVTFKDKPLAANTGAIDGISRVLAQLSTPAIIVHGGGSFGHYWSVKYDMHTKPAGYDPHGVSVVHESMIALNQIIINSMIRAGLNPYGMPPSVFAAGHKPVAAKIKQIYTMAKSEVMPVTFGDVVHMEGNKYSILSGDALMTMLAKVLRPSRVVFATNVDGIYKDMASRELMREIRVTTGRKKRSIEFSKASGADVTGGMQRKVAEAFKIASRGMDVLMVNGLMPERIAEAVVEGTRLQVGTVVKGSRR", "notes": "as for B1"}},
  "key": {"purified protein": {"substrate": "CC(C)=CCOP(=O)(O)O", "assay": "purified protein", "details": "ATP 1 mM (2 mM in methods), 25 mM Tris pH 7.8, 5 mM MgCl2, 37 °C"}, "[1]": {"substrate": "C=C(C)CCOP(=O)(O)O", "assay": "PK-LDH coupled assay, NADH A340", "assay_type": "biochemical, Methanosarcina barkeri", "details": "ATP 1 mM (2 mM in methods), 25 mM Tris pH 7.8, 5 mM MgCl2, 37 °C"}, "[2]": {"substrate": "Nc1ncnc2c1ncn2[C@@H]1O[C@H](COP(=O)(O)OP(=O)(O)OP(=O)(O)O)[C@@H](O)[C@H]1O", "assay": "PK-LDH coupled assay, NADH A340", "assay_type": "biochemical, Methanosarcina barkeri", "details": "isopentenyl phosphate (1) 1 mM, 25 mM Tris pH 7.8, 5 mM MgCl2, 37 °C"}, "[3]": {"substrate": "O=P(O)(O)OCc1ccccc1", "assay": "PK-LDH coupled assay, NADH A340", "assay_type": "biochemical, Methanosarcina barkeri", "details": "ATP 1 mM (2 mM in methods), 25 mM Tris pH 7.8, 5 mM MgCl2, 37 °C"}, "[4]": {"substrate": "C=C(C)CCOP(=O)(O)O", "assay": "PK-LDH coupled assay, NADH A340", "assay_type": "biochemical, Methanohalophilus mahii", "details": "ATP 1 mM (2 mM in methods), 25 mM Tris pH 7.8, 5 mM MgCl2, 37 °C"}, "[5]": {"substrate": "Nc1ncnc2c1ncn2[C@@H]1O[C@H](COP(=O)(O)OP(=O)(O)OP(=O)(O)O)[C@@H](O)[C@H]1O", "assay": "PK-LDH coupled assay, NADH A340", "assay_type": "biochemical, Methanohalophilus mahii", "details": "isopentenyl phosphate (1) 1 mM, 25 mM Tris pH 7.8, 5 mM MgCl2, 37 °C"}, "[6]": {"substrate": "O=P(O)(O)OCc1ccccc1", "assay": "PK-LDH coupled assay, NADH A340", "assay_type": "biochemical, Methanohalophilus mahii", "details": "ATP 1 mM (2 mM in methods), 25 mM Tris pH 7.8, 5 mM MgCl2, 37 °C"}, "[7]": {"substrate": "C=C(C)CCOP(=O)(O)O", "assay": "PK-LDH coupled assay, NADH A340", "assay_type": "biochemical, Thermococcus paralvinellae", "details": "ATP 1 mM (2 mM in methods), 25 mM Tris pH 7.8, 5 mM MgCl2, 37 °C"}, "[8]": {"substrate": "Nc1ncnc2c1ncn2[C@@H]1O[C@H](COP(=O)(O)OP(=O)(O)OP(=O)(O)O)[C@@H](O)[C@H]1O", "assay": "PK-LDH coupled assay, NADH A340", "assay_type": "biochemical, Thermococcus paralvinellae", "details": "isopentenyl phosphate (1) 1 mM, 25 mM Tris pH 7.8, 5 mM MgCl2, 37 °C"}, "[9]": {"substrate": "O=P(O)(O)OCc1ccccc1", "assay": "PK-LDH coupled assay, NADH A340", "assay_type": "biochemical, Thermococcus paralvinellae", "details": "ATP 1 mM (2 mM in methods), 25 mM Tris pH 7.8, 5 mM MgCl2, 37 °C"}, "[10]": {"substrate": "C=C(C)CCOP(=O)(O)O", "assay": "PK-LDH coupled assay, NADH A340", "assay_type": "biochemical, Candidatus Nitrososphaera gargensis", "details": "ATP 1 mM (2 mM in methods), 25 mM Tris pH 7.8, 5 mM MgCl2, 37 °C", "description": "(§1) PK-LDH coupled assay, NADH A340 on CNG"}, "[11]": {"substrate": "Nc1ncnc2c1ncn2[C@@H]1O[C@H](COP(=O)(O)OP(=O)(O)OP(=O)(O)O)[C@@H](O)[C@H]1O", "assay": "PK-LDH coupled assay, NADH A340", "assay_type": "biochemical, Candidatus Nitrososphaera gargensis", "details": "isopentenyl phosphate (1) 1 mM, 25 mM Tris pH 7.8, 5 mM MgCl2, 37 °C", "description": "as §1"}, "[12]": {"substrate": "O=P(O)(O)OCc1ccccc1", "assay": "PK-LDH coupled assay, NADH A340", "assay_type": "biochemical, Candidatus Nitrososphaera gargensis", "details": "ATP 1 mM (2 mM in methods), 25 mM Tris pH 7.8, 5 mM MgCl2, 37 °C", "description": "as §1"}},
  "data": [
    {"protein": "B1", "values": [
      {"measurement": "Km", "setting": "purified protein", "result": "32 ± 7", "unit": "µM"},
      {"measurement": "kcat", "setting": "purified protein", "result": 10.1, "unit": "s⁻¹"},
      {"measurement": "kcat/Km", "setting": "purified protein", "result": 310000, "unit": "M⁻¹ s⁻¹"},
      {"measurement": "Km", "setting": "[1]", "result": "27 ± 5", "unit": "µM"},
      {"measurement": "kcat", "setting": "[1]", "result": "10.3 ± 0.4", "unit": "s⁻¹"},
      {"measurement": "kcat/Km", "setting": "[1]", "result": 380000, "unit": "M⁻¹ s⁻¹"},
      {"measurement": "Km", "setting": "[2]", "result": "90 ± 10", "unit": "µM"},
      {"measurement": "kcat", "setting": "[2]", "result": "9.1 ± 0.4", "unit": "s⁻¹"},
      {"measurement": "kcat/Km", "setting": "[2]", "result": 100000, "unit": "M⁻¹ s⁻¹"},
      {"measurement": "Km", "setting": "[3]", "result": "45 ± 8", "unit": "µM"},
      {"measurement": "kcat", "setting": "[3]", "result": "1.23 ± 0.07", "unit": "s⁻¹"},
      {"measurement": "kcat/Km", "setting": "[3]", "result": 27000, "unit": "M⁻¹ s⁻¹"}
    ]},
    {"protein": "B2", "values": [
      {"measurement": "Km", "setting": "[4]", "result": "50 ± 10", "unit": "µM"},
      {"measurement": "kcat", "setting": "[4]", "result": "5.2 ± 0.4", "unit": "s⁻¹"},
      {"measurement": "kcat/Km", "setting": "[4]", "result": 100000, "unit": "M⁻¹ s⁻¹"},
      {"measurement": "Km", "setting": "[5]", "result": "100 ± 30", "unit": "µM"},
      {"measurement": "kcat", "setting": "[5]", "result": "6.3 ± 0.3", "unit": "s⁻¹"},
      {"measurement": "kcat/Km", "setting": "[5]", "result": 63000, "unit": "M⁻¹ s⁻¹"},
      {"measurement": "Km", "setting": "[6]", "result": "70 ± 10", "unit": "µM"},
      {"measurement": "kcat", "setting": "[6]", "result": "0.139 ± 0.008", "unit": "s⁻¹"},
      {"measurement": "kcat/Km", "setting": "[6]", "result": 1900, "unit": "M⁻¹ s⁻¹"},
      {"measurement": "Km", "setting": "purified protein", "result": "36 ± 4", "unit": "µM"},
      {"measurement": "kcat", "setting": "purified protein", "result": 4.1, "unit": "s⁻¹"},
      {"measurement": "kcat/Km", "setting": "purified protein", "result": 120000, "unit": "M⁻¹ s⁻¹"}
    ]},
    {"protein": "B3", "values": [
      {"measurement": "Km", "setting": "[7]", "result": "22 ± 6", "unit": "µM"},
      {"measurement": "kcat", "setting": "[7]", "result": "0.62 ± 0.03", "unit": "s⁻¹"},
      {"measurement": "kcat/Km", "setting": "[7]", "result": 28000, "unit": "M⁻¹ s⁻¹"},
      {"measurement": "Km", "setting": "[8]", "result": "15 ± 3", "unit": "µM"},
      {"measurement": "kcat", "setting": "[8]", "result": "0.59 ± 0.03", "unit": "s⁻¹"},
      {"measurement": "kcat/Km", "setting": "[8]", "result": 39000, "unit": "M⁻¹ s⁻¹"},
      {"measurement": "Km", "setting": "[9]", "result": "69 ± 10", "unit": "µM"},
      {"measurement": "kcat", "setting": "[9]", "result": "0.039 ± 0.002", "unit": "s⁻¹"},
      {"measurement": "kcat/Km", "setting": "[9]", "result": 560, "unit": "M⁻¹ s⁻¹"},
      {"measurement": "Km", "setting": "purified protein", "result": "70 ± 10", "unit": "µM"},
      {"measurement": "kcat", "setting": "purified protein", "result": 24, "unit": "s⁻¹"},
      {"measurement": "kcat/Km", "setting": "purified protein", "result": 360000, "unit": "M⁻¹ s⁻¹"}
    ]},
    {"protein": "B4", "values": [
      {"measurement": "Km", "setting": "[10]", "result": "61 ± 9", "unit": "µM"},
      {"measurement": "kcat", "setting": "[10]", "result": "1.12 ± 0.05", "unit": "s⁻¹"},
      {"measurement": "kcat/Km", "setting": "[10]", "result": 18000, "unit": "M⁻¹ s⁻¹"},
      {"measurement": "Km", "setting": "[11]", "result": "21 ± 5", "unit": "µM"},
      {"measurement": "kcat", "setting": "[11]", "result": "0.81 ± 0.06", "unit": "s⁻¹"},
      {"measurement": "kcat/Km", "setting": "[11]", "result": 39000, "unit": "M⁻¹ s⁻¹"},
      {"measurement": "Km", "setting": "[12]", "result": "1200 ± 200", "unit": "µM"},
      {"measurement": "kcat", "setting": "[12]", "result": "0.83 ± 0.07", "unit": "s⁻¹"},
      {"measurement": "kcat/Km", "setting": "[12]", "result": 700, "unit": "M⁻¹ s⁻¹"},
      {"measurement": "Km", "setting": "purified protein", "result": "390 ± 90", "unit": "µM"},
      {"measurement": "kcat", "setting": "purified protein", "result": 0.87, "unit": "s⁻¹"},
      {"measurement": "kcat/Km", "setting": "purified protein", "result": 2200, "unit": "M⁻¹ s⁻¹"}
    ]}
  ]
}
